# Data: US20220340682A1 (Sanofi, published 2022)
# T1: cCEACAM5, M. fascicularis CEACAM5 ECD (35-688) (Macaca fascicularis)
# T1 construct: ECD followed by a 24 amino acid extension containing a His-Tag; also called cynomolgus CEACAM5; monkey CEACAM5
# T1 chain: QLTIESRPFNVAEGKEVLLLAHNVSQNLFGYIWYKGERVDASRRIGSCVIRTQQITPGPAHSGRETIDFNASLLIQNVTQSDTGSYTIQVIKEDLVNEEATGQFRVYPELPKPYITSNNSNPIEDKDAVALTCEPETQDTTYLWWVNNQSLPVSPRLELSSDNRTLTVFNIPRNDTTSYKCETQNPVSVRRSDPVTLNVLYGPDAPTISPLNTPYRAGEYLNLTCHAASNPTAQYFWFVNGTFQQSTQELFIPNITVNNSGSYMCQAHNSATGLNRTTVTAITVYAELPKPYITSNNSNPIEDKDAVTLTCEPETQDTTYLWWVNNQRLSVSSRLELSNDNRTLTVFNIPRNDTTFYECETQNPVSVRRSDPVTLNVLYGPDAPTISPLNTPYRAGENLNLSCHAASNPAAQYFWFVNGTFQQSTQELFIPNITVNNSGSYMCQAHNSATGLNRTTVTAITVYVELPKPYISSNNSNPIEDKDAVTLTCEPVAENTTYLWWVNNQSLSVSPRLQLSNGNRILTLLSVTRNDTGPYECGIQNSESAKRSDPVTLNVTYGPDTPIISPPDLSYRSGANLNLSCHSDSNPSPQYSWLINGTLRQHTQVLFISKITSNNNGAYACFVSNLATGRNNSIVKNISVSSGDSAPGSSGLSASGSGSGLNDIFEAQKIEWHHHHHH
# T2: hCEACAM5, human CEACAM5 ECD (35-685) (human, UniProt P06731 35-685)
# T2 construct: produced in HEK293; also called human CEACAM5 protein; human CEACAM5 extracellular domain
# T2 sequence: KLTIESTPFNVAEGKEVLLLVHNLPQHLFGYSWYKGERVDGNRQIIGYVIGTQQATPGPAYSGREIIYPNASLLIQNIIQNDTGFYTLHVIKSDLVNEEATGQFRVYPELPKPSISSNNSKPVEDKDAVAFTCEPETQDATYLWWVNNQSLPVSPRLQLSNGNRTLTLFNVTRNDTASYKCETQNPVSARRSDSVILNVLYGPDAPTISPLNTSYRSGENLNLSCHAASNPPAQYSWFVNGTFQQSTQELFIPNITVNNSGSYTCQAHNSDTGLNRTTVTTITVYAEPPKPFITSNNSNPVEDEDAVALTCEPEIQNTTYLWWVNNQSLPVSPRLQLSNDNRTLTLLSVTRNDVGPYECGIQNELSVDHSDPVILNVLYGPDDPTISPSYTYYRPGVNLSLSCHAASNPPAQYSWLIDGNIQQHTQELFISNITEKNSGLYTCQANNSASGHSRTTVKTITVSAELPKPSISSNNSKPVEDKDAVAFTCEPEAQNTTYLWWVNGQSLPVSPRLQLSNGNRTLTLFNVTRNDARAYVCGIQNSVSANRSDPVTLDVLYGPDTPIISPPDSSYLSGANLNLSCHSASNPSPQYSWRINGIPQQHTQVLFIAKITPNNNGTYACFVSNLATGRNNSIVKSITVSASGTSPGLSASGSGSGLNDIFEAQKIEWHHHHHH
# Legend:
# [1] = molecular target: T1, cCEACAM5, M. fascicularis CEACAM5 ECD …; experiment: SPR screening (Biacore T200) of example 6.4
# Experimental: (§1) To evaluate impact of these modifications, IgGs binding was determined by measuring SPR signals with a Biacore T200 unit (GE Healthcare). Anti-human Fc antibodies were coupled to a Series S CM5 chip via amine coupling kit to reach a level of 10,000 response units (RU). Approximately 300 to 600 RU of each variant were captured by injecting supernatants at 1 μg/mL with a contact time of 60 seconds and a flow rate of 10 μL/min. All experiments were performed at 25° C. with HBS-EP+(10 mM Hepes, 150 mM NaCl, 3 mM EDTA, 0.05% surfactant P20) as the running buffer. In a screening mode, the human CEACAM5 cynomolgus CEACAM5/human A3B3 domain was injected at 50 nM over the captured IgG variants at a flow rate of 30 μLimin for 1 minute. […]
# (§2) For each experiment, response data were processed using a reference surface, thereby allowing correction for bulk refractive index changes and any non-specific binding. […] First, the binding activity is estimated by the proportion of the theoretical maximum signal measured (percentage of Rmax, see FIG. 16). Second, the percentage of remaining signal is calculated using dissociation report points (the first one 10 seconds after the end of the injection and the second one 50 seconds after the end of injection) and reflects the stability of binding (see FIG. 17).
# [2] = molecular target: T2, hCEACAM5, human CEACAM5 ECD (35-685); experiment: SPR screening (Biacore T200) of example 6.4
# Experimental: as §1, §2
# [3] = molecular target: T2, hCEACAM5, human CEACAM5 ECD (35-685); experiment: SPR (Biacore T200), IgG captured by anti-human Fc, antigen injected at 50 nM; % Rmax reached
# Experimental: (§3) To evaluate impact of these modifications, IgGs binding was determined by measuring SPR signals with a Biacore T200 unit (GE Healthcare). Anti-human Fc antibodies were coupled to a Series S CM5 chip via amine coupling kit to reach a level of 10,000 response units (RU). Approximately 300 to 600 RU of each variant were captured by injecting supernatants at 1 μg/mL with a contact time of 60 seconds and a flow rate of 10 μL/min. All experiments were performed at 25° C. with HBS-EP+(10 mM Hepes, 150 mM NaCl, 3 mM EDTA, 0.05% surfactant P20) as the running buffer. In a screening mode, the human CEACAM5 cynomolgus CEACAM5/human A3B3 domain was injected at 50 nM over the captured IgG variants at a flow rate of 30 μLimin for 1 minute. A dissociation phase of 60 seconds was held before the surface was regenerated with 1 pulse injection of 3 M MgCl₂ at a flow rate of 10 μLiminute and a contact time of 30 seconds.
# (§4) For each experiment, response data were processed using a reference surface, thereby allowing correction for bulk refractive index changes and any non-specific binding. Data were double referenced using response from blank injections. According to the screening method described in an application note from GE Healthcare (Application note 28-9777-72 AA), two parameters were considered to rank the variants with respect to binding characteristics. First, the binding activity is estimated by the proportion of the theoretical maximum signal measured (percentage of Rmax, see FIG. 16). Second, the percentage of remaining signal is calculated using dissociation report points (the first one 10 seconds after the end of the injection and the second one 50 seconds after the end of injection) and reflects the stability of binding (see FIG. 17).
# [4] = molecular target: T1, cCEACAM5, M. fascicularis CEACAM5 ECD …; experiment: SPR (Biacore T200), IgG captured by anti-human Fc, antigen injected at 50 nM; % remaining signal after 50 seconds
# Experimental: as §3, §4
# [5] = molecular target: T2, hCEACAM5, human CEACAM5 ECD (35-685); experiment: as above
# Experimental: as §3, §4
# [6] = molecular target: T1, cCEACAM5, M. fascicularis CEACAM5 ECD …; experiment: SPR (Biacore T200), IgG captured by anti-human Fc, antigen injected at 50 nM; % Rmax reached
# Experimental: as §3, §4
binding result [3],binding result [4],binding result [5],binding result [6],Binder,also measured
–,binds,binds,–,"LC_T51A (antibody, V domains shown, variant of MAb2_VLg5VHg2) VH: EVQLVESGGGLVQPGGSLRLSCAASGFVFSSYDMSWVRQAPGKGLEWVSYISSGGGITYYADSVKGRFTISRDNSKNTLYLQMNSLRAEDTAVYYCAAHYFGSSGPFAYWGQGTLVTVSS VL: DIQMTQSPSSLSASVGDRVTITCRASENIFSYLAWYQQKPGKAPKLLIYNARTLQSGVPSRFSGSGSGTDFTLTISSLQPEDFATYYCQHHYGTPFTFGQGTKLEIK",–
binds,–,–,binds,"LC_T53I-HC_S53A (antibody, V domains shown, combination variant of MAb2_VLg5VHg2) VH: EVQLVESGGGLVQPGGSLRLSCAASGFVFSSYDMSWVRQAPGKGLEWVSYISAGGGITYYADSVKGRFTISRDNSKNTLYLQMNSLRAEDTAVYYCAAHYFGSSGPFAYWGQGTLVTVSS VL: DIQMTQSPSSLSASVGDRVTITCRASENIFSYLAWYQQKPGKAPKLLIYNTRILQSGVPSRFSGSGSGTDFTLTISSLQPEDFATYYCQHHYGTPFTFGQGTKLEIK",–
binds,–,–,binds,"LC_S31A-HC_G54Y (antibody, V domains shown, combination variant of MAb2_VLg5VHg2) VH: EVQLVESGGGLVQPGGSLRLSCAASGFVFSSYDMSWVRQAPGKGLEWVSYISSYGGITYYADSVKGRFTISRDNSKNTLYLQMNSLRAEDTAVYYCAAHYFGSSGPFAYWGQGTLVTVSS VL: DIQMTQSPSSLSASVGDRVTITCRASENIFAYLAWYQQKPGKAPKLLIYNTRTLQSGVPSRFSGSGSGTDFTLTISSLQPEDFATYYCQHHYGTPFTFGQGTKLEIK",–

# The remaining lines, values behind:
Binder,binding result [3],binding result [4],binding result [5],binding result [6],also measured
"MAb2_VLg5VHg2 (antibody, human IgG1, V domains shown, Fused to human IgG1 and human Ckappa constant domains; tested as IgG in HEK293 supernatants diluted to 1 ug/ml; Parent of the alanine-scanning variants; also called MAb2_VLg5Hg2; humanized MAb2 grafted on IGHV3-23 / IGKV1D-39) VH: EVQLVESGGGLVQPGGSLRLSCAASGFVFSSYDMSWVRQAPGKGLEWVSYISSGGGITYYADSVKGRFTISRDNSKNTLYLQMNSLRAEDTAVYYCAAHYFGSSGPFAYWGQGTLVTVSS VL: DIQMTQSPSSLSASVGDRVTITCRASENIFSYLAWYQQKPGKAPKLLIYNTRTLQSGVPSRFSGSGSGTDFTLTISSLQPEDFATYYCQHHYGTPFTFGQGTKLEIK",–,–,–,–,binding result [1]: binds; binding result [2]: binds
"LC_T94A (antibody, V domains shown, variant of MAb2_VLg5VHg2) VH: EVQLVESGGGLVQPGGSLRLSCAASGFVFSSYDMSWVRQAPGKGLEWVSYISSGGGITYYADSVKGRFTISRDNSKNTLYLQMNSLRAEDTAVYYCAAHYFGSSGPFAYWGQGTLVTVSS VL: DIQMTQSPSSLSASVGDRVTITCRASENIFSYLAWYQQKPGKAPKLLIYNTRTLQSGVPSRFSGSGSGTDFTLTISSLQPEDFATYYCQHHYGAPFTFGQGTKLEIK",binds,–,–,–,–
"LC_S31A (antibody, V domains shown, variant of MAb2_VLg5VHg2) VH: EVQLVESGGGLVQPGGSLRLSCAASGFVFSSYDMSWVRQAPGKGLEWVSYISSGGGITYYADSVKGRFTISRDNSKNTLYLQMNSLRAEDTAVYYCAAHYFGSSGPFAYWGQGTLVTVSS VL: DIQMTQSPSSLSASVGDRVTITCRASENIFAYLAWYQQKPGKAPKLLIYNTRTLQSGVPSRFSGSGSGTDFTLTISSLQPEDFATYYCQHHYGTPFTFGQGTKLEIK",–,binds,binds,–,–
"HC_S53A (antibody, V domains shown, variant of MAb2_VLg5VHg2) VH: EVQLVESGGGLVQPGGSLRLSCAASGFVFSSYDMSWVRQAPGKGLEWVSYISAGGGITYYADSVKGRFTISRDNSKNTLYLQMNSLRAEDTAVYYCAAHYFGSSGPFAYWGQGTLVTVSS VL: DIQMTQSPSSLSASVGDRVTITCRASENIFSYLAWYQQKPGKAPKLLIYNTRTLQSGVPSRFSGSGSGTDFTLTISSLQPEDFATYYCQHHYGTPFTFGQGTKLEIK",–,binds,binds,–,–
"LC_T51A-T94A (antibody, V domains shown, combination variant of MAb2_VLg5VHg2) VH: EVQLVESGGGLVQPGGSLRLSCAASGFVFSSYDMSWVRQAPGKGLEWVSYISSGGGITYYADSVKGRFTISRDNSKNTLYLQMNSLRAEDTAVYYCAAHYFGSSGPFAYWGQGTLVTVSS VL: DIQMTQSPSSLSASVGDRVTITCRASENIFSYLAWYQQKPGKAPKLLIYNARTLQSGVPSRFSGSGSGTDFTLTISSLQPEDFATYYCQHHYGAPFTFGQGTKLEIK",binds,–,–,binds,–
